As usually defined, the koff is the first-order rate constant of dissociation. Low values mean a long-lived complex, high ones a short-lived complex. Broadly, the kon is the second-order rate constant of association. Higher therefore signals fast association.

The text below walks through data of US20150132307A1 (Hoffmann-La Roche, published 2015).

Residue numbers refer to the chain shown, from its start. Names may count otherwise. Some results are limits rather than exact numbers.

Assay [1] concerns the target T1, human Tweak-Fc (human, UniProt O43508 106-249, limits assumed).
T1 construct: not shown: Fc part
T1 sequence: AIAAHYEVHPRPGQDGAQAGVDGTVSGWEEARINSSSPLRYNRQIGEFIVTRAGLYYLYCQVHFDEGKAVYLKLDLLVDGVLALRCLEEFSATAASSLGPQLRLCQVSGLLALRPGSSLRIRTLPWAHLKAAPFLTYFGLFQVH
The assay can be described thus: SPR (BIAcore T100), TWEAK ligand (Tweak-Fc) amine-coupled on C1 chip, bispecific antibody as analyte, 25 C, apparent KD, 1:1 model. The source says: (§1) The BIAcore® system is well established for the study of molecule interactions. SPR-technology is based on the measurement of the refractive index close to the surface of a gold coated biosensor chip. Changes in the refractive index indicate mass changes on the surface caused by the interaction of immobilized ligand with analyte injected in solution. The mass increases if molecules bind immobilized ligands on the surface, and vice versa, the mass decreases in case of dissociation of the analyte from the immobilized ligand (reflecting complex dissociation). SPR allows a continuous real-time monitoring of ligand/analyte binding and thus the determination of the association rate constant (ka), the dissociation rate constant (kd), and of the equilibrium constant (KD).
(§2) Around 100 resonance units (RU) of TWEAK was immobilized on the C1 chip surface at pH 5.0 using an amine coupling kit supplied by the GE Healthcare. The sample and system buffer was PBS-T (10 mM phosphate buffered saline including 0.05% Tween20) pH 7.4. Association was measured by injection the bispecific antibody in various concentrations in solution for 3 min at a flow of 30 μl/min starting with 50 nM in 1:1 dilutions. The dissociation phase was monitored for up to 10 min and triggered by switching from the sample solution to running buffer. […]

The target of assay [2] is T1, human Tweak-Fc. Description: SPR (BIAcore T100), TWEAK ligand (Tweak-Fc) amine-coupled on C1 chip, bispecific antibody as analyte, 25 C.
Text: as §1, §2
In general terms: In SPR one partner is held on a chip, and binding of the other changes the refractive index at the surface.

Assay [3] deals with T2, Recombinant human TWEAK (R&D Systems; Cat. #1090-TW/CF) (human, UniProt O43508 97-249, limits assumed).
T2 sequence: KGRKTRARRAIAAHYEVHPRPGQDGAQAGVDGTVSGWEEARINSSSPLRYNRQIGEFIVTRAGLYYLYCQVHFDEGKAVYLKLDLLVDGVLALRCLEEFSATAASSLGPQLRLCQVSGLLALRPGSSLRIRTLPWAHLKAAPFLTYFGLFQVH
Description: cell-based or functional assay.

In another assay the target is T3, IL-17 F/F (human, UniProt Q96PD4 31-163).
T3 construct: read as the homodimer of IL17F
T3 sequence: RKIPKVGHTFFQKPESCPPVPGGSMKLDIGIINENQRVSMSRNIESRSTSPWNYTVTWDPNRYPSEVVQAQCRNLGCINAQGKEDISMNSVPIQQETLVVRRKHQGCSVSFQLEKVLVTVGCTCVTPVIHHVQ
The assay can be described thus: SPR (BIAcore T100), antibody captured by anti-human F(ab')2, IL17 as analyte, 25 C. How it is done: (§3) Around 12000 resonance units (RU) of the capturing system (10 μg/ml goat anti human F(ab′)2; Order Code: 28958325; GE Healthcare Bio-Sciences AB, Schweden) were coupled on a CMS chip at pH 5.0 by using an amine coupling kit supplied by the GE Healthcare. The sample and system buffer was PBS-T (10 mM phosphate buffered saline including 0.05% Tween20) pH 7.4. The bispecific antibody was captured by injecting a 50 nM solution for 1 min at a flow of 10 μl/min. Association was measured by injection human IL17 in various concentrations in solution for 3 min at a flow of 30 μl/min starting with 50 nM in 1:1 dilutions. The dissociation phase was monitored for up to 5 min and triggered by switching from the sample solution to running buffer. The surface was regenerated by two times 60 sec. washing with a glycin pH 2.1 solution at a flow rate of 30 μl/min. Bulk refractive index differences were corrected by subtracting the response obtained from a goat anti human F(ab′)2 surface. Blank injections are also subtracted (=double referencing). For calculation of apparent KD and other kinetic parameters the Langmuir 1:1 model was used.

The target in another assay is human IL17A/A (human, UniProt Q16552 24-155, limits assumed). Description: SPR (BIAcore T100), antibody captured by anti-human F(ab')2, IL17 as analyte, 25 C, apparent KD, 1:1 model. How it is done: as §3
human IL17A/A, sequence (Q16552 24-155 limits assumed): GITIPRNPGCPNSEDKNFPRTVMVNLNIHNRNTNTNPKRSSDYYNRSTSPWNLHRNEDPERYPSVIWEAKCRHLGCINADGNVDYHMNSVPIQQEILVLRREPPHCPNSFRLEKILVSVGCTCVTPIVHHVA
The target of assay [4] is T1, human Tweak-Fc. The assay can be described thus: SPR (BIAcore T100), TWEAK ligand (Tweak-Fc) amine-coupled on C1 chip, bispecific antibody as analyte, 25 C, 1:1 model.
Text: as §1
Around 100 resonance units (RU) of TWEAK was immobilized on the C1 chip surface at pH 5.0 using an amine coupling kit supplied by the GE Healthcare. The sample and system buffer was PBS-T (10 mM phosphate buffered saline including 0.05% Tween20) pH 7.4. Association was measured by injection the bispecific antibody in various concentrations in solution for 3 min at a flow of 30 μl/min starting with 50 nM in 1:1 dilutions. The dissociation phase was monitored for up to 10 min and triggered by switching from the sample solution to running buffer. The surface was regenerated by three times 30 sec. washing with a 3M MgCl2 solution at a flow rate of 30 μl/min. Bulk refractive index differences were corrected by subtracting the response obtained from a blank-coupled surface. Blank injections are also subtracted (=double referencing). For calculation of apparent KD and other kinetic parameters the Langmuir 1:1 model was used.

For assay [5], the target named is T4, recombinant human IL-17 (Peprotech #200-17) (human, UniProt Q16552 20-155). The assay can be described thus: cell-based or functional assay.
T4 sequence (Q16552 20-155 limits assumed): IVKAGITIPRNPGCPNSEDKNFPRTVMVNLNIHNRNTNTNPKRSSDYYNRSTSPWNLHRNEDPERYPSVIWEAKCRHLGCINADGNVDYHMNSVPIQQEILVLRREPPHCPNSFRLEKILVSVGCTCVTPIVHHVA
The target of a further assay is T5, Human IL17C (human, UniProt Q9P0M4 19-197).
T5 sequence: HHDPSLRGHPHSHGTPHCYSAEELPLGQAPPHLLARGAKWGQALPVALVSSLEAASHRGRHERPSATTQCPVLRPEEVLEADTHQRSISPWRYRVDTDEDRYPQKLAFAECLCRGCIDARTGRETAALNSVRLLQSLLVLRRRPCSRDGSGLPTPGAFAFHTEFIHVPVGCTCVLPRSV
The assay can be described thus: ELISA on coated IL-17 subtype; OD relative to IL-17A binding (100). As to the method:
(§4) NUNC® Maxisorp plates (96-well) are coated with recombinant human IL-17 (Peprotech #200-17, www.peprotech.com) at a concentration of 0.5 μg/ml in PBS ([…]). Plates are incubated at 37° C. on an orbital shaker with agitation for 2 hours. Thereafter coating solution is removed and 100 μl/well PBSTC (phosphate buffered saline, 0.05% Tween®20, 2% chicken serum) is added. Plates are incubated at room temperature for 1 hour. […] The second antibody is diluted 1:10000 in PBSTC and plates are incubated for 1 hour at room temperature with agitation. Second antibody is removed, plates are washed three times with 200 μl/well PBST (phosphate buffered saline, 0.05% Tween®20) and 100 μl/well ABTS® (Roche Diagnostics GmbH) is added. Optical density is measured at 405/492 nm in relation to IL-17A binding (set as 100%). Binding to other human IL-17 subtypes (IL-17B, IL-17C, IL-17D, IL-17E and IL-17F) were performed with the same assay format.

The target in the next assay is T6, Human IL17F (human, UniProt Q96PD4 31-163).
T6 sequence: T3 sequence
The assay is described as above. As to the method:
as §4

For a further assay, the target named is T7, Human IL17D (human, UniProt Q8TAD2 16-202, limits assumed).
T7 sequence: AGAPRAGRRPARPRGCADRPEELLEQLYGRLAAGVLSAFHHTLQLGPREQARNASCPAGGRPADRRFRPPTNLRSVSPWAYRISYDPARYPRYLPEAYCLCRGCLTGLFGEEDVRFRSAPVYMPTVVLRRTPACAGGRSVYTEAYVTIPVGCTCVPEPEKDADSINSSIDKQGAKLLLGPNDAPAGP
Described as above. As to the method: as §4

The target of a further assay is T8, Human IL17B (human, UniProt Q9UHF5 21-180).
T8 sequence: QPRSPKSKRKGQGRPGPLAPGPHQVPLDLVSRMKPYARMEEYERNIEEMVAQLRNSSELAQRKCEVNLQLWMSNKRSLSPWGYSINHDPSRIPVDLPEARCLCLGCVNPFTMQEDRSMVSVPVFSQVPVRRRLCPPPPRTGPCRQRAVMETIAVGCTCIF
Described as above. How it is done:
as §4

The target in assay [6] is T4, recombinant human IL-17 (Peprotech …). The assay can be described thus: cell-based or functional assay. The source holds these as a separate data set.
The next assay has as its target T9, IL-17 A/F (human, UniProt Q16552 24-155; Q96PD4 31-163).
T9 construct: read as the heterodimer of IL17A and IL17F
Description: SPR (BIAcore T100), antibody captured by anti-human F(ab')2, IL17 as analyte, 25 C, 1:1 model. How it is done: as §3

T9 sequence (Q16552 24-155 limits assumed, one chain of several): as the sequence (Q16552 24-155 limits assumed) above

B1: Bispecific <Tweak-IL-17> #20 antibody (bispecific antibody, human IgG4 S228P, kappa)
heavy 1: EVQLVESGGGLVQPGGSLRLSCAASGFSLDSYGVHWVRQATGKGLEWVSVIWSDGTTTYNSALKSRFTISRENAKNSLYLQMNSLRAGDTAVYYCARDTHYRLYYYAMDYWGQGTTVTVSSASTKGPSVFPLAPCSRSTSESTAALGCLVKDYFPEPVTVSWNSGALTSGVHTFPAVLQSSGLYSLSSVVTVPSSSLGTKTYTCNVDHKPSNTKVDKRVESKYGPPCPPCPAPEFEGGPSVFLFPPKPKDTLMISRTPEVTCVVVDVSQEDPEVQFNWYVDGVEVHNAKTKPREEQFNSTYRVVSVLTVLHQDWLNGKEYKCKVSNKGLPSSIEKTISKAKGQPREPQVCTLPPSQEEMTKNQVSLSCAVKGFYPSDIAVEWESNGQPENNYKTTPPVLDSDGSFFLVSRLTVDKSRWQEGNVFSCSVMHEALHNHYTQKSLSLSLGK
heavy 2: not shown
light: DIVMTQSPLSLPVTPGEPASISCRSSQSLVHSNGDTYFHWYLQKPGQSPQLLIYKVSNRFSGVPDRFSGSGSGTDFTLKISRVEAEDVGVYYCSQTTHAPFTFGQGTKLEIKRTVAAPSVFIFPPSDEQLKSGTASVVCLLNNFYPREAKVQWKVDNALQSGNSQESVTEQDSKDSTYSLSSTLTLSKADYEKHKVYACEVTHQGLSSPVTKSFNRGEC
notes: Bivalent one-armed scFab format, IgG4 S228P/L235E knobs-into-holes
As for B1, in the assay with human Tweak-Fc [1], the Kd came to 0.0656 nM. Further, the “T½” value with human Tweak-Fc [2] is 3.63 h. The “IC50 (nM) per valency, Tweak induced HFLS proliferation (CellTiter Glo)” value in [3] came to 0.08 nM. Moreover, the binding result with IL-17 F/F is reported as “no binding (tested: IL17 injected starting with 50 nM)”. Moreover, the Kd with human IL17A/A is less than 0.2 nM. Also, in the assay with human Tweak-Fc [4], the koff came out at 5.31e-05 s⁻¹ and the kon was found to be 810000 M⁻¹ s⁻¹. Besides, in [5], the “IL-6 IC50 [nM] per valency (IL-17 induced cytokine production, HFLS-RA)” value (“IL-6 IC50 [nM] per valency” for short) is 1.38 nM and the “IL-8 IC50 [nM] per valency (IL-17 induced cytokine production, HFLS-RA)” value (“IL-8 IC50 [nM] per valency” for short) was 0.9 nM.

B2: <IL17> 9C6-2B6-134 (antibody, V domains shown)
VH: EVQLVESGGGLVQPGGSLRLSCAASGFSLDSYGVHWVRQAPGKGLEWVSVIWSDGTTTYNSALKSRFTISRDNSKNTLYLQMNSLRAEDTAVYYCARDTHYRLYYYAMDYWGQGTTVTVSS
VL: DIVMTQSPLSLPVTPGEPASISCRSSQSLVHSNGDTYFHWYLQKPGQSPQLLIYKVSNRFSGVPDRFSGSGSGTDFTLKISRVEAEDVGVYYCSQTTHAPFTFGQGTKLEIK
notes: Humanized variant
Consider B2, for which the binding result with Human IL17C, with Human IL17F, in the assay with Human IL17D and with Human IL17B was “no binding (tested: 10 µg/ml antibody)” throughout. Besides, in assay [6], the “IL-8 Inhibition IC50 (nM) (CCD-25SK cells, IL-17A + TNF-alpha)” value turned out to be 4.5 nM. Also, the “IL-6 IC50 [nM] per valency” value in assay [5] amounted to 3.56 nM. Besides, the “IL-8 IC50 [nM] per valency” value in [5] came to 2.2 nM.

B3: <IL17> 9C6-2B6-136 (antibody, V domains shown)
VH: B2 VH with P41T, D72E, S74A, T77S, E88G
VL: B2 VL
notes: Humanized variant with HC136 and LC136
For the molecule B3, the binding result with Human IL17C is “no binding (tested: 10 µg/ml antibody)”; in the assay with Human IL17F it was “no binding (tested: 10 µg/ml antibody)”; with Human IL17D it was “no binding (tested: 10 µg/ml antibody)”; with Human IL17B, “no binding (tested: 10 µg/ml antibody)”; with IL-17 F/F it was “no binding (tested: IL17 injected starting with 50 nM)”. Also, in [6], the “IL-8 Inhibition IC50 (nM) (CCD-25SK cells, IL-17A + TNF-alpha)” value was determined as 1.8 nM. Also, the Kd in the assay with human IL17A/A came to 0.18 nM; with IL-17 A/F, 0.26 nM. In assay [5], the “IL-6 IC50 [nM] per valency” value was 1.62 nM. In addition, the “IL-8 IC50 [nM] per valency” value in [5] is 1.74 nM.

B4: <IL17> 9C6-2B6 (antibody, V domains shown)
VH: QVQLKESGPGLVAPSQSLSITCTVSGFSLDSYGVHWVRQPPGKGLEWLVVIWSDGTTTYNSALKSRLSITKDNSKSQVFLKMNSLQTDDTAIYYCARDTHYRLYYYAMDYWGQGTSVTVSS
VL: DVVMTQTPLSLPVSLGDQASISCRSSQSLVHSNGDTYFHWYLQKPGQSPKLLIYKVSNRFSGVPDRFSGSGSGTDFTLKINRVEAEDLGVYFCSQTTHAPFTFGSGTKLEIK
notes: Mouse hybridoma antibody; also called mouse clone <IL17>9C6-2B6
For the molecule B4, the binding result in the assay with Human IL17C, with Human IL17F, with Human IL17D and in the assay with Human IL17B was “no binding (tested: 10 µg/ml antibody)” throughout.
